No end group written: not given here.
How the values were obtained:
human B7-H3 = target: T1, human B7-H3 (human, UniProt Q5ZPR3 29-534); assay: IHC on FFPE samples
T1 construct: whole, on cells; Endogenous protein detected in FFPE cells and tissues by IHC, and as a 110 kDa band in SDS-PAGE-fractionated cell lysates by Western blot; also called B7-H3 polypeptide
T1 sequence (looked up): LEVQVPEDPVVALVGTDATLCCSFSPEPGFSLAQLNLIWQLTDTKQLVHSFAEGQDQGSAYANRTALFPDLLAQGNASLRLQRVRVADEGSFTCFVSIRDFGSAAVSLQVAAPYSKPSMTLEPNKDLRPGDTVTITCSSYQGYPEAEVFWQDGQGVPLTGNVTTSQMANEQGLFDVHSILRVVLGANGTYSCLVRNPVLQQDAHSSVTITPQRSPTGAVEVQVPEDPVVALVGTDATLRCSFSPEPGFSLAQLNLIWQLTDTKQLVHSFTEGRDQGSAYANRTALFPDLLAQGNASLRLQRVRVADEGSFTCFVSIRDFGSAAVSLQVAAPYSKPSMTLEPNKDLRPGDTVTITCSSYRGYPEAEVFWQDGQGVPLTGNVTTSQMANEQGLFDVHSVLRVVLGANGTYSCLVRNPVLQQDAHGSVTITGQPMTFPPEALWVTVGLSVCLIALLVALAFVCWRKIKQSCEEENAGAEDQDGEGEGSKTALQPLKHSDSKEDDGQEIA
Procedure: Rabbit anti-human B7-H3 monoclonal antibodies SP265 and S10H50L58 were applied onto formalin-fixed paraffin embedded (FFPE) tissue samples to assess the staining patterns of these antibodies. Tissue samples include Hs700t (positive control), kidney (negative control) and renal cell carcinoma (positive control). IHC was performed on BenchMark Ultra (Ventana Medical Systems) using mild CC1 cell conditioning with OptiView detection kit.

[1] = target: T2, peptide immunogen (human B7-H3 aa 521-534), KHSDSKEDDGQEIA (human, not fully specified); assay: ELISA, antibody on immobilized peptide immunogen
T2 construct: also called immobilized peptide immunogen
T2 peptide: KHSDSKEDDGQEIA
Procedure: ELISA studies were performed with the SP265 antibody to evaluate binding to the immobilized peptide immunogen (human B7-H3 aa 521-534).

binding result (human B7-H3): binds | EC50 [1]: 0.067 nM
B1: Rabbit anti-human B7-H3 monoclonal antibody SP265 (antibody, V domains shown)
VH: QSVEESRGGLIKPTDTLTLTCTVSGFSLGSYGVSWVRQAPGNGLEWIGGSGKRGNPYYASWAKSRSTITRNTNLNTVTLKMTSLTAADTATYFCASRAPVVSTSMTFNIWGPGTLVTVSS
VL: AQVPTQTPSPVSAAVGGTVTINCQASQSVYNNKNLSWYQQKPGQPPKLLIYEASTLASGVPSRFSGSGSGTQFALTISGVQCEDAATYYCQGEFTCSGADCGAFGGGTEVVVK
notes: also called SP265 anti-B7-H3 antibody; SP265 B7-H3 antibody
